This experiment addresses T1, L-plastin EF construct (EF-hand headpiece domain, H5 region omitted) (human).
T1 construct: human L-plastin (LPL), EF construct: the two N-terminal EF-hand motifs (helices 1-4, residues 8-79) with the H5 region omitted; holds Cys42; 15N-labelled in the NMR experiment; immobilised by Cys42 in SPR; also called LPL-EF; EF domain of LPL; source: E. coli BL21 (DE3), purified (IMAC, His-tag cleaved with TEV protease); not shown: His-tag, N-terminal, cleaved
The experiment in a line: SPR; EF construct immobilised by its sole cysteine (Cys42) on a CM5 chip by thiol coupling; peptides injected; BIAcore X100; 10 mM Tris-HCl pH 7.5, 150 mM KCl, 1 mM CaCl2, 0.005% Tween-20; 30 uL/min, contact 1 min, 25 °C. To be noted: both partners purified.

B1: CaMKI peptide (CaM-binding peptide) (peptide)
chain: AKSKWKQAFNATAVVRHMRKLQ
modifications: Limits are not given; 299-320 is the conventional 22-residue CaMKI calmodulin-binding peptide. Terminal modifications are not stated.
Broadly, the Kd is a measure of binding affinity in units of concentration. B1 displayed a Kd of 3.27 µM.
